Experimental data as given in US20140056960A1, “Methods for Improving Fracture Healing and Bone Formation” (Imperial Innovations Limited, priority 2010, published 2014).
“Also recorded” adds a separate entry of the source.

Key:
[1] = tested on: tibial fracture; test: murine tibial fracture model: callus mineralization (microCT) and histology after local administration at fracture site; format: in vivo, mouse; conditions: exogenous alarmin at fracture site days 0 and 1 (rmHMGB1 20 μL at 50 ng/ml); day 28 microCT
Description: Percentage callus mineralization was determined from the fracture site to 1 mm proximally (mean+/−SEM). FIG. 5. Dose response of exogenous TNF-α in vivo. 20 μL of PBS with rhTNF-α at the corresponding dose was injected at the fracture site at days 0 and 1 in C57BI/6 mice. At day 28, mice were harvested and limbs scanned by microCT in a blinded fashion. Percentage callus mineralization was determined from the fracture site to 1 mm proximally (threshold density of 350 mg/cm^3). * p<0.05, ** p<0.01. FIG. 7A. […] Percentage callus mineralization was determined from the fracture site to 1 mm proximally (mean+/−SEM). FIG. 18. […] C57BI6 mice were subjected to fracture model with addition of 20 μL of rmHMGB1 at 50 ng/ml at the fracture site at days 0 and 1 compared to controls. Addition of exogenous S100A8 or S100A9 or S100A8/9 had no effect, possibly because the fracture environment may already contain optimal amounts of S100 A8 or A9 proteins. All mice were harvested at day 28 and limbs scanned by microCT in a blinded fashion. Percentage callus mineralization was determined from the fracture site to 1 mm proximally (mean+/−SEM). […] Inflammation plays a vital role in early fracture repair^11,12. In murine models, TNF-α, IL-1 and IL-6 are expressed at the fracture site within 24 hours of injury^13,14. Biphasic expression of TNF-α and IL-1β appears to be linked to the initiation of fracture repair and later to endochondral maturation^14,15. In our murine model, callus mineralization at day 28 was enhanced when TNF-α, at a concentration of 50 ng/kg was injected locally following injury (day 0) and 24 hours later.

[2] = tested on: PBMCs; test: TNF-α production by PBMCs (ELISA, 14 hours); format: cell-based, human; conditions: PBMCs 1*10^5/ml, 10% FCS, alarmin at indicated doses
Description: FIG. 10. […] (A) PBMCs at 1*10^5/ml were incubated in 10% fetal calf serum (FCS) with S100 A8 at indicated doses. […] (B) PBMCs at 1*10^5/ml were incubated in 10% FCS with S100 A8 at 0.5 μg/ml with the addition of either antibody to TLR4, TLR2 or isotype controls (not shown), or sRAGE over 14 hours. TNF-α levels were determined by ELISA.
FIG. 12. […] PBMCs at 1*10^5/ml were incubated in 10% FCS with S100 A8, S100 A9 or S100 A12 at the indicated doses over 14 hours. TNF-α levels were determined by ELISA.
FIG. 17. […] PBMCs at 1*10^5/ml were incubated in 10% FCS with HMGB1 or LPS at the indicated doses over 14 hours; TNF-α levels were determined by ELISA.

[3] = tested on: PBMCs; test: IL-6 and IL-1β production by PBMCs stimulated with S100 A8 (ELISA); format: cell-based, human; conditions: S100 A8 0.5 μg/ml with antibody to TLR4, TLR2 or sRAGE, 14 hours
Description: FIG. 13. […] PBMCs at 1*10^5/ml were incubated in 10% FCS with S100 A8 0.5 μg/ml with the addition of either antibody to TLR4, TLR2 or isotype controls, or sRAGE over 14 hours. IL-6 (A) and […] (B) levels were determined by ELISA.

[4] = tested on: muscle derived stromal cells (MDSCs); test: osteogenic activity of supernatant from stimulated PBMCs: alkaline phosphatase in MDSCs over 7 d; format: cell-based, human; conditions: S100 A8 at indicated doses (μg/ml) or LPS 10 ng/ml; MDSCs 7 d
Description: FIG. 15. Supernatant from PBMCs stimulated with S100A8 but not LPS is osteogenic. PBMCs at 1*10^5/ml were stimulated with S100 A8 at indicated doses (μg/ml), or LPS at 10 ng/ml. The supernatants were harvested and filter-sterilised through a 0.2 μm filter. MDSCs were cultured in this S100 A8-stimulated supernatant over 7 d and alkaline phosphatase levels quantified.
FIG. 16. Osteogenic activity of supernatant from human monocytes exposed to varying doses of LPS.

B1: S100A8: alarmin; rhS100A8 added to human PBMCs (protein, UniProt P05109 1-93, looked up)
Protein S100-A8: MLTELEKALNSIIDVYHKYSLIKGNFHAVYRDDLKKLLETECPQYIRKKGADVWFKELDINTDGAVNFQEFLILVIKMGVAAHKKSHEESHKE
- fracture healing / percentage callus mineralization [1]: no effect
- TNF-α production by PBMCs ([2]; listed as S100 A8): stimulates monocytes to produce TNF-α in a dose dependent manner; also recorded: dose-dependent increase in TNF-α production
- TNF-α production by PBMCs ([2]; listed as rhS100A8): resulted in production of TNF-α
- receptor dependence of IL-6 and IL-1β production [3]: produced by monocytes via TLR4 and also RAGE, but not TLR2
- osteogenic activity of stimulated PBMC supernatant (alkaline phosphatase) [4]: led to osteogenesis; also recorded: osteogenic
